Data: patent US20080085859A1, “Drug Promoting Ceramide Transport, Base Sequence for Producing the Drug, Method of Measuring Activity of Promoting Ceramide Release and Method of Measuring Activity of Promoting Intermembrane Ceramide Transfer” (JAPAN SCIENCE AND TECHNOLOGY AGENCY, priority 2003, published 2008)

What was measured:
LY-A2 cell = assay: content of phospholipids of cell; type: cell-based, Chinese hamster; conditions: LY-A2/hCERT cell, FIG. 3(B)
Experimental: 3×10^6 cells per culture dish having the 150-mm diameter of CHO-K1 cell, LY-A2 cell, or LY-A2/hCERT cell was inoculated in 20 mL of F12/NBS medium, and cultured at 33° C. overnight. After it was washed twice in 10 mL of serum-free F12 medium, it was further cultured for 2 days in 20 mL of Nutridoma BO medium. After it was washed in PBS, the cells were collected by a method of scaping, suspended again in PBS, and lipid was extracted by a method described in Bligh et al (Can. J. Biochem. Physiol. 37, 911-917, 1959). The extracted lipid was separated using TLC whose development solvents were chloroform/methanol/acetic acid/H2O (volume ratio, 25:15:4:2). After the separated phospholipid on the TLC plate was colored by iodine vapor, the band of the respective separated phospholipid was scraped out from the plate. The scraped separated phospholipid was quantified by measuring phosphorus content by a method of Rouser et al (Lipids 1, 85-86, 1966).

[1] = ceramide release promotion activity from membrane; type: biochemical; conditions: 14C-ceramide in phosphatidylcholine/phosphatidylethanolamine membrane, 37° C. 30 minutes, 14C in supernatant; FIGS. 14, 16
Experimental: Hereinafter, the standard method will be described in detail, however, even if the described conditions are changed, a method of detecting ceramide release promotion activity having means for separating releasing ceramide by a centrifugation principally belongs to the present invention. The lipid membrane containing ceramide was prepared so that it contains 12.5 nCi (225 pmol) per sample of [palmitoyl-1-^14C]N-palmitoyl-D-ethyro-sphigosine (hereinafter, may be referred to as ^14C-ceramide) on the basis of the mixed lipid consisting of phosphatidylcholine and phosphatidylethanolamine derived from egg yolk at the ratio of 4:1 and its concentration becomes 2.5 mg/mL. This lipid membrane is required at the rate of 20 μL per one sample of the activity measurement. […]
hCERT protein or its recombinant protein described above as a protein sample to be targeted (under the standard conditions, the amount of protein corresponding to 450 picomoles, which is 2-fold molar equivalent amount of ceramide contained in the donating membrane was used) were messed up to 30 μL using the buffer 2 [50 mM Hepes-NaOH buffer (pH7.4) to which 100 mM NaCl and 0.5 mM EDTA have been added]. […] The activity for promoting ceramide release with hCERT was calculated by measuring the radioactive activity of ^14C in the supernatant fraction using a liquid scintillation counter. […]

LY-A cell = assay: recovery of ceramide transport function of LY-A cell by hCERT stable expression; type: cell-based, Chinese hamster; conditions: FIG. 9
Text: Also in the original LY-A cell to which retrovirus receptor has not been introduced, it has been ascertained as described below that ceramide transport function is recovered by hCERT expression. hCERT inserted pcDNA3.1/Neo plasmid was introduced into LY-A cell by performing lipofection, after G418 resistant cell was selected, transformed strain LY-A/hCERT was purified by a limited-dilution. Subsequently, the measurement of the sensitivity to MCD, metabolism labeling experiment of lipid using [^14C] serine and [^14C] choline and cell labeling using C5-DMB-Cer and fluorescene microscopy observation were similarly performed.

B1: hCERT protein: human CERT protein having an amino acid sequence of SEQ ID NO:1 (protein)
chain: MSDNQSWNSSGSEEDPETESGPPVERCGVLSKWTNYIHGWQDRWVVLKNNALSYYKSEDETEYGCRGSICLSKAVITPHDFDECRFDISVNDSVWYLRAQDPDHRQQWIDAIEQHKTESGYGSESSLRRHGSMVSLVSGASGYSATSTSSFKKGHSLREKLAEMETFRDILCRQVDTLQKYFDACADAVSKDELQRDKVVEDDEDDFPTTRSDGDFLHSTNGNKEKLFPHVTPKGINGIDFKGEAITFKATTAGILATLSHCIELMVKREDSWQKRLDKETEKKRRTEEAYKNAMTELKKKSHFGGPDYEEGPNSLINEEEFFDAVEAALDRQDKIEEQSQSEKVRLHWPTSLPSGDAFSSVGTHRFVQKVEEMVQNHMTYSLQDVGGDANWQLVVEEGEMKVYRREVEENGIVLDPLKATHAVKGVTGHEVCNYFWNVDVRNDWETTIENFHVVETLADNAIIIYQTHKRVWPASQRDVLYLSVIRKIPALTENDPETWIVCNFSVDHDSAPLNNRCVRAKINVAMICQTLVSPPEGNQEISRDNILCKITYVANVNPGGWAPASVLRAVAKREYPKFLKRFTSYVQEKTAGKPILF
modifications: HeLa cell
With B1 the SM content (LY-A2 cell) was “recovered to the wild type level”, the “activity for promoting ceramide release” value [1] was “detected depending on the amount of hCERT and the length of incubating time” and the “reactivity with respect to MCD, SM biosynthesis, C5-DMB-Cer transfer from ER to Golgi apparatus region” value (LY-A cell) was “recovered to the nature of the wild type”.
